Reference: publication PMC4656083 (Chemistry & biology, 2015)
One block for each molecule: values may come before it.

Columns and labels:
Assay in all cases: cross-linking
[1] = target: AcpP (acyl carrier protein) loaded with crosslinking probe DH10 (E. coli) (UniProt P0A6A8)
[2] = target: AcpP (acyl carrier protein) loaded with crosslinking probe DH8 (E. coli) (UniProt P0A6A8)
[3] = target: AcpP (acyl carrier protein) loaded with crosslinking probe DH6 (E. coli) (UniProt P0A6A8)
[4] = target: AcpP (acyl carrier protein) loaded with crosslinking probe DH10X (E. coli) (UniProt P0A6A8)
[5] = target: T1, FabA, β-hydroxyacyl-AcpP dehydratase (wild type) (E. coli, UniProt P0A6Q3 2-172)
T1 sequence: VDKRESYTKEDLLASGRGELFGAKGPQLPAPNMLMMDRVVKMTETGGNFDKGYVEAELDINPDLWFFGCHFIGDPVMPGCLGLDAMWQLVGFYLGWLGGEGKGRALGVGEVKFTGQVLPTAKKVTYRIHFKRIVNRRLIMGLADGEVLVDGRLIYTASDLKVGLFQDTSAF

- crosslinking efficiency relative to WT FabA [1]: > 50%
- crosslinking efficiency relative to WT FabA [2]: > 50%
- crosslinking efficiency relative to WT FabA [3]: > 50%
- crosslinking efficiency relative to WT FabA [4]: > 50%
Molecule: FabA F92A (enzyme)

- crosslinking efficiency relative to FabA WT [1]: 50%
- crosslinking efficiency relative to FabA WT [4]: 50%
Molecule: FabA F165A (enzyme)

- crosslinking efficiency relative to FabA WT [1]: 50%
- crosslinking efficiency relative to FabA WT [4]: 50%
Molecule: FabA F171A (enzyme)

- crosslinking efficiency relative to WT FabA [1]: > 50%
- crosslinking efficiency relative to WT FabA [2]: > 50%
- crosslinking efficiency relative to WT FabA [3]: > 50%
- crosslinking efficiency relative to WT FabA [4]: > 50%
Molecule: FabA L94A (enzyme)

- crosslinking efficiency relative to WT FabA [1]: > 50%
- crosslinking efficiency relative to WT FabA [2]: > 50%
- crosslinking efficiency relative to WT FabA [3]: > 50%
- crosslinking efficiency relative to WT FabA [4]: > 50%
Molecule: FabA L164A (enzyme)

- percent complex formation (crosslinking) [1]: < 50%
- percent complex formation (crosslinking) [2]: < 50%
- percent complex formation (crosslinking) [3]: < 50%
- percent complex formation (crosslinking) [4]: < 50%
Molecule: FabA R137E (enzyme)

- binding result [5]: binds
B1: AcpP (acyl carrier protein) loaded with crosslinking probe DH10 (natural protein, E. coli)
chain: STIEERVKKIIGEQLGVKQEEVTNNASFVEDLGADSLDTVELVMALEEEFDTEIPDEEAEKITTVQAAIDYINGHQA
modifications: S36 carries the phosphopantetheine analogue of probe DH10 (sulfonyl-3-alkyne warhead, mimics a C10 acyl chain)
